3 proteins from PMC3939855 (Nature immunology, 2013) can be followed below.

Like-named read-outs stand apart in the source and are kept apart here.

The data set “native gel or EMSA” deals with the molecule itself. Nature of the data set: native gel or EMSA.
Data set [1] concerns the molecule itself.

B1: ELF4 (endogenous, human cells) (natural protein)
chain: not shown
In general, stoichiometry N refers to the number of molecules, sites or subunits per partner or assembly. In the case of B1, in the data set “native gel or EMSA”, the “stoichiometry N” value came out at 2.

B2: ELF4 (expressed from a plasmid; tag not stated for the experiment) (natural protein)
chain: not shown
On to B2, for which the “stoichiometry N” value in data set [1] was found to be 2.

B3: ELF4 (endogenous, mouse cells) (natural protein)
chain: not shown
In the case of B3, the “stoichiometry N” value in the data set “native gel or EMSA” is 2.
